Test results published in article PMC4815241 (Protein Science : A Publication of the Protein Society, 2015).
Like-named read-outs stand apart in the source and are kept apart here.

Experiments:
[1] = target: eIF4GII_(551–745)/eIF4E complex (human | murine) (UniProt O43432); assay: ITC; MicroCal ITC microcalorimeter; the ligand titrated into the protein in the cell (cell about 10× lower than titrant); 25°C; 20 mM Hepes/KOH pH 7.4, 150 mM KCl, 1 mM EDTA; three experiments
[2] = target: human eIF4GII residues 551–745 (human) (UniProt O43432); assay: as above
[3] = target: eIF4GII_(551–745)/eIF4E complex (human | murine) (UniProt O43432); assay: SEC-MALS; Superdex 200 10/300 in assay buffer, miniDAWN light scattering instrument, 100 µg sample
[4] = target: recombinant full-length murine eIF4E (murine) (UniProt P63073); assay: SEC-MALS; static light scattering on eIF4E/2A^proC106S complexes formed overnight
Sequence of recombinant full-length murine eIF4E (murine) (P63073 whole entry, the tested form may be a part): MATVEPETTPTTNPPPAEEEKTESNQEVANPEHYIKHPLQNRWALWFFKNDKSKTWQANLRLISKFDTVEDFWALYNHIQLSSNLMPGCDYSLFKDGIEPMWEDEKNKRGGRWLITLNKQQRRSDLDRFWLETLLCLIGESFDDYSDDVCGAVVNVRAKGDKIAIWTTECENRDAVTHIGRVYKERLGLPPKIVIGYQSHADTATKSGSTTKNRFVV

[5] = target: recombinant full-length murine eIF4E (murine) (UniProt P63073); assay: ITC; MicroCal ITC microcalorimeter; the ligand titrated into the protein in the cell (cell about 10× lower than titrant); 25°C; 20 mM Hepes/KOH pH 7.4, 150 mM KCl, 1 mM EDTA; three experiments
[6] = target: recombinant full-length murine eIF4E (murine) (UniProt P63073); assay: as above; remark: listed apart in the source
[7] = target: human eIF4GII residues 551–745 (human) (UniProt O43432); assay: as above; remark: listed apart in the source
[8] = target: HRV2 2A^proC106S (human rhinovirus 2); assay: SEC-MALS; Superdex 200 10/300 in assay buffer, miniDAWN light scattering instrument, 100 µg sample
[9] = target: recombinant full-length murine eIF4E (murine) (UniProt P63073); assay: SEC-MALS; static light scattering after 10 min of complex formation
[10] = target: T1, recombinant full-length murine eIF4E (murine, UniProt P63073 1-217); assay: SEC-MALS; Superdex 200 10/300 in assay buffer, miniDAWN light scattering instrument, 100 µg sample; conditions: both partners purified
T1 sequence (P63073 whole entry): as the sequence (P63073 whole entry, the tested form may be a part) above

[11] = target: T1, recombinant full-length murine eIF4E; assay: ITC; MicroCal ITC microcalorimeter; the ligand titrated into the protein in the cell (cell about 10× lower than titrant); 25°C; 20 mM Hepes/KOH pH 7.4, 150 mM KCl, 1 mM EDTA; three experiments; conditions: both partners purified

CVB4 2A^proC110A with a N-terminal extension of eight VP1 residues (enzyme)
Kd [1]: 19 µM | Kd [2]: 19 µM | stoichiometry N [3]: 1

HRV2 2A^proC106S (enzyme)
stoichiometry N [4]: 1 | Kd [5]: 8 µM | Kd [1]: 5.1 µM | Kd [6]: 12 µM | Kd [2]: 75 µM | Kd [7]: 86 µM | stoichiometry N [8]: 2

HRV2 2A^pro bearing the mutations C106S and C138S (enzyme)
stoichiometry N [9]: 1

B1: human eIF4GII residues 551–745 (domain or fragment, UniProt O43432 551-745, looked up)
chain: GFHPERDPSDLKKVKAVEENGEEAEPVRNGAESVSEGEGIDANSGSTDSSGDGVTFPFKPESWKPTDTEGKKQYDREFLLDFQFMPACIQKPEGLPPISDVVLDKINQPKLPMRTLDPRILPRGPDFTPAFADFGRQTPGGRGVPLLNVGSRRSQPGQRREPRKIITVSVKEDVHLKKAENAWKPSQKRDSQADD
stoichiometry N [10]: 1 | Kd [11]: 0.042 µM
